Assays:
[1] = target: T1, human GARP-proTGFβ1 complex (human, UniProt P01137 30-390; Q14392 20-627); test: BLI (Octet)
T1 construct: also called hGARP-proTGFβ1; hGARP
Protocol: (§1) The affinity of anti-TGFβ1 antibodies was measured by Octet@ assay on human proTGFβ1 cells, while activity was measured by CAGA12 reporter cells testing human proTGFβ1 inhibition.

[2] = target: T2, human LRRC33-proTGFβ1 complex (human, UniProt P01137 30-390; Q86YC3 19-650); test: BLI (Octet)
T2 construct: also called hLRRC33-proTGFβ1; hLRRC33
Protocol: as §1

[3] = target: hLTBP1-proTGFβ1 as produced in the cell-based activation assay (human, UniProt P01137 30-390; Q14766 347-1721); test: cell-based or functional assay
[4] = target: hLTBP3-proTGFβ1 as produced in the cell-based activation assay (human, UniProt P01137 30-390; Q9NS15 44-1303); test: cell-based or functional assay
[5] = target: hGARP-proTGFβ1 presented on cells (human, UniProt P01137 30-390; Q14392 20-662); test: cell-based or functional assay
[6] = target: hLRRC33-proTGFβ1 presented on cells (human, UniProt P01137 30-390; Q86YC3 19-692); test: cell-based or functional assay
Chain of hLRRC33-proTGFβ1 presented on cells (P01137 30-390 limits assumed, chain 1 of 2): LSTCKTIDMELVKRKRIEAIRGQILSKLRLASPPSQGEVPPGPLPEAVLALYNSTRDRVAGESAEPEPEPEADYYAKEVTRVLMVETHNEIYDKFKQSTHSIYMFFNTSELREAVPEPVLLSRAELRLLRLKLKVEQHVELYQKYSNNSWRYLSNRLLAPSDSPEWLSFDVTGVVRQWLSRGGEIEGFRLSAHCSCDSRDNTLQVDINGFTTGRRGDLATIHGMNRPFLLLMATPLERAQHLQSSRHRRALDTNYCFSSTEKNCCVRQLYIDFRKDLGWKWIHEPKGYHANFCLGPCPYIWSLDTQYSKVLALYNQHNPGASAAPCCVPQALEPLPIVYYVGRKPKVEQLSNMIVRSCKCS
Chain of hLRRC33-proTGFβ1 presented on cells (Q86YC3 19-692 limits assumed, chain 2 of 2): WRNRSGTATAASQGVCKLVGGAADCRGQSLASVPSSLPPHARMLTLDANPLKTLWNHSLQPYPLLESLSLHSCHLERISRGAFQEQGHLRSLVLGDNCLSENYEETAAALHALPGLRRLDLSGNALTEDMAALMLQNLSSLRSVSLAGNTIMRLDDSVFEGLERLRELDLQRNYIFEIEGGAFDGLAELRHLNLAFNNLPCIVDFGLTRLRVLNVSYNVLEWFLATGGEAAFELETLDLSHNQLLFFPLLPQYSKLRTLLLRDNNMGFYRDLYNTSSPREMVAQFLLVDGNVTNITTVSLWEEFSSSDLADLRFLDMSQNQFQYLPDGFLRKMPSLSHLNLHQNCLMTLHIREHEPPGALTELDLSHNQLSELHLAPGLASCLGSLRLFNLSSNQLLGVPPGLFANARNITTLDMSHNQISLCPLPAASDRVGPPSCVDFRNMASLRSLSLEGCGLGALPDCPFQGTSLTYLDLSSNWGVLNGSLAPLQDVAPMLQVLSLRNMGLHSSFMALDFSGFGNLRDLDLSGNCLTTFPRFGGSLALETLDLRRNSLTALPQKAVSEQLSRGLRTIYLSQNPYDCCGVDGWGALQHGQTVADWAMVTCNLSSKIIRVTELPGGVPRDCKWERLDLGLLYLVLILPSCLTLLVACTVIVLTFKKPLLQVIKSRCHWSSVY

Chain of hLTBP1-proTGFβ1 as produced in the cell-based activation assay (P01137 30-390 limits assumed, chain 1 of 2): as the sequence (P01137 30-390 limits assumed, chain 1 of 2) above
Chain of hLTBP1-proTGFβ1 as produced in the cell-based activation assay (Q14766 347-1721 limits assumed, chain 2 of 2): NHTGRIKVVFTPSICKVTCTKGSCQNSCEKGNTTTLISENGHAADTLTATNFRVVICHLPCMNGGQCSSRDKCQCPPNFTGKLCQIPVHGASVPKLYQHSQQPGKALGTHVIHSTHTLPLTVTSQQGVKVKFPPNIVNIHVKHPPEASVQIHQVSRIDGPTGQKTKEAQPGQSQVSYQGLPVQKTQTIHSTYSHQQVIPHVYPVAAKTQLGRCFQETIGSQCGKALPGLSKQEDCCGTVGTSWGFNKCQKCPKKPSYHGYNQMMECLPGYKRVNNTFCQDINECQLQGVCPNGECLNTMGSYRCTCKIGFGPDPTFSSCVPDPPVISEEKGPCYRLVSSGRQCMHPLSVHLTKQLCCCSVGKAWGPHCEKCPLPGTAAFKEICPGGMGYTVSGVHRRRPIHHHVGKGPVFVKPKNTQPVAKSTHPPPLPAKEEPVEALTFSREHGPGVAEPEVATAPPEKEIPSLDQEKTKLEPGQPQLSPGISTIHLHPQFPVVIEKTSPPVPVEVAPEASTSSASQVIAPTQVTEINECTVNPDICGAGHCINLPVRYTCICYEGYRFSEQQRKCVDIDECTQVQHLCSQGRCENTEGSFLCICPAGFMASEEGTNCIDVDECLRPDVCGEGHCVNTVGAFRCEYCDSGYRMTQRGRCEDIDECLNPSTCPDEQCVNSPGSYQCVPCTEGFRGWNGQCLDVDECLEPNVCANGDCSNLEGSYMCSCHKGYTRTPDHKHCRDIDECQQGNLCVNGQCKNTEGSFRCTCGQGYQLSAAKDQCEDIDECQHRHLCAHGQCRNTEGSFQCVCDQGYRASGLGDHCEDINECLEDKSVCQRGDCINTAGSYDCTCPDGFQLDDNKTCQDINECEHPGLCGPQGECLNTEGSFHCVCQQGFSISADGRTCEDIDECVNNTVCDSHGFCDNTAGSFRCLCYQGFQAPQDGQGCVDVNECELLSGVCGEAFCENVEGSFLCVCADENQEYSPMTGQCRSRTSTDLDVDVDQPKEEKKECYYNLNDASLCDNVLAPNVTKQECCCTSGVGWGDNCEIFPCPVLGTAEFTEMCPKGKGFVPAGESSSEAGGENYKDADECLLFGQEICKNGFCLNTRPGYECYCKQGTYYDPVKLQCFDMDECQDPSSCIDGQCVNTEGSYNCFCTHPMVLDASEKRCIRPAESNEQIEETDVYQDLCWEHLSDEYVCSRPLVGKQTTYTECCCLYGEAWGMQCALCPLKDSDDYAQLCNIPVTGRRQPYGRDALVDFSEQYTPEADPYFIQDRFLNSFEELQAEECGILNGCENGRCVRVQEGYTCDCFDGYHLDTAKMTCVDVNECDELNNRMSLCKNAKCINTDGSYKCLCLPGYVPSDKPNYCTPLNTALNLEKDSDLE
T1 sequence (P01137 30-390, chain 1 of 2): as the sequence (P01137 30-390 limits assumed, chain 1 of 2) above
T1 sequence (Q14392 20-627, chain 2 of 2): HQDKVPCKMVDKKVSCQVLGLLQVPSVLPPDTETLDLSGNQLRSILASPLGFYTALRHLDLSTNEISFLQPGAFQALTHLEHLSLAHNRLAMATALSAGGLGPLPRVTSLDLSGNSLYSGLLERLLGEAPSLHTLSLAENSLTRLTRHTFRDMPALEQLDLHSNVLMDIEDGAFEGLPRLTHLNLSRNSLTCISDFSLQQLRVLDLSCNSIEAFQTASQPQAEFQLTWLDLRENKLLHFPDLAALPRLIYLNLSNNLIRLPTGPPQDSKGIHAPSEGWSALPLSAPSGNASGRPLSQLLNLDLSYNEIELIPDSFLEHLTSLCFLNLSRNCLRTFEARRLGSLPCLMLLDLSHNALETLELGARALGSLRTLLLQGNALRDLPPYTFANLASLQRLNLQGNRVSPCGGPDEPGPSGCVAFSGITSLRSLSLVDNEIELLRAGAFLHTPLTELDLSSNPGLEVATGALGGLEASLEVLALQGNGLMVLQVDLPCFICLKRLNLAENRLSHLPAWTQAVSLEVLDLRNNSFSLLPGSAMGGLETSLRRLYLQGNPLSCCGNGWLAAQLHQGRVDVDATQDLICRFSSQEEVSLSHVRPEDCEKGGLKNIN
Chain of hGARP-proTGFβ1 presented on cells (P01137 30-390 limits assumed, chain 1 of 2): as the sequence (P01137 30-390 limits assumed, chain 1 of 2) above
Chain of hGARP-proTGFβ1 presented on cells (Q14392 20-662 limits assumed, chain 2 of 2): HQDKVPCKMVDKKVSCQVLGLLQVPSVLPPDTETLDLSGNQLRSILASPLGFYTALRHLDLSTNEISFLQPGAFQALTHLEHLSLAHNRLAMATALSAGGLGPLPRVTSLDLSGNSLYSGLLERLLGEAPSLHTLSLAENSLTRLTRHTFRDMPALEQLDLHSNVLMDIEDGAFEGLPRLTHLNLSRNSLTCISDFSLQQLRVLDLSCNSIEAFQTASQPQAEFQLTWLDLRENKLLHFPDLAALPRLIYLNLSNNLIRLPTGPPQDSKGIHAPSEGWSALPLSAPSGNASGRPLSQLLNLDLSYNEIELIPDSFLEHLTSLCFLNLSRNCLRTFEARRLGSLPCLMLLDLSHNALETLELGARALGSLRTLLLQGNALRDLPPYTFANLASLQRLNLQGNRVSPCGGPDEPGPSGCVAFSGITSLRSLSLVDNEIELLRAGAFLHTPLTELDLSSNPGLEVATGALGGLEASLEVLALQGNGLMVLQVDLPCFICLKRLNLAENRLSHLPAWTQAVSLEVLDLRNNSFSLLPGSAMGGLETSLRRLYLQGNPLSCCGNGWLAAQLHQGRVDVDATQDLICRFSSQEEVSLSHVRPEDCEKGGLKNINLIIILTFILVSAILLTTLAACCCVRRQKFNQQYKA
T2 sequence (P01137 30-390 limits assumed, chain 1 of 2): as the sequence (P01137 30-390 limits assumed, chain 1 of 2) above
T2 sequence (Q86YC3 other isoform, or with tags, fused parts or gaps limits assumed, chain 2 of 2): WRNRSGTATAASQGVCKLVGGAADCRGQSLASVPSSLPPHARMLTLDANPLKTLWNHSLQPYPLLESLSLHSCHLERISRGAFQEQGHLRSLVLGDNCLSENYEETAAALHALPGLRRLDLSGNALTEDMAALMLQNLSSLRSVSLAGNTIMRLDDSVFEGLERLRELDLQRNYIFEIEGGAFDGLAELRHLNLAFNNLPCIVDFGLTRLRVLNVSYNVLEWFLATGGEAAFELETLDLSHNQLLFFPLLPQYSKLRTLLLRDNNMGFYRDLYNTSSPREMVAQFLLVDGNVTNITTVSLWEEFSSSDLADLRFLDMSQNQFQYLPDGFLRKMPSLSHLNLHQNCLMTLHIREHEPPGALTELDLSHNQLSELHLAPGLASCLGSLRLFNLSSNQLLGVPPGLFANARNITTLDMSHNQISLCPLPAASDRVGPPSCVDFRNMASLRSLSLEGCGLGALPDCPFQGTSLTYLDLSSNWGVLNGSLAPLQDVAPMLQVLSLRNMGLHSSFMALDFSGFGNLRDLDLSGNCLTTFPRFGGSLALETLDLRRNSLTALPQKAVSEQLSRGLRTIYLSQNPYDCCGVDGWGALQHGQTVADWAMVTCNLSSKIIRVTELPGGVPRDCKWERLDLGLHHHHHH

Row | Binder | Kd [1] [nM] | Kd [2] [nM] | IC50, reporter cell assay [3] [nM] | IC50, reporter cell assay [4] [nM] | IC50, reporter cell assay [5] [nM] | IC50, reporter cell assay [6] [nM]
1 | Ab16 (antibody, V domains shown) VH: EVQLLESGGGLVQPGGSLRLSCAASGFTFSNYAMSWVRQAPGKGLEWVSAISGSGFTTYYADSVKGRFTISRDNSKNTLYLQMNSLRAEDTAVYYCARVSSGHWDFDYWGQGTLVTVSS VL: DIQLTQSPSSLSASVGDRVTITCRASQSISSYLNWYQQKPGKAPKLLIYAASNLQSGVPSRFSGSGSGTDFTLTISSLQPEDFATYYCQQTYTVPLTFGGGTKVEIK | 4.16 | 0.631 | – | – | – | –
2 | Ab8 (antibody, V domains shown) VH: QVQLVESGGGVVQPGRSLRLSCAASGFTFSDYAMVWVRQAPGKGLEWVSAISGSGFTTYYADSVKGRFTISRDNSKNTLYLQMNSLRAEDTAVYYCARVSSGHWDFDYWGQGTLVTVSS VL: not shown | 15.4 | 10 | – | – | – | –
3 | Ab9 (antibody, V domains shown) VH: QVQLVESGGGVVQPGGSLRLSCAASGFTFSSFAMTWVRQAPGKGLEWVSAISGSGAATYFADSVKGRFTISRDNSKNTLYLQMNSLRAEDTAVYYCARVSSGHWDFDYWGQGTLVTVSS VL: not shown | 15.5 | 1.3 | – | – | – | –
4 | Ab7 (antibody, V domains shown) VH: EVQLLESGGGLVQPGGSLRLSCAASGFTFADYAMTWVRQAPGKGLEWVSAISGTGAHTYYADSVKGRFTISRDNSKNTLYLQMNSLRAEDTAVYYCARVSSGHWDFDYWGQGTLVTVSS VL: not shown | 18 | 10.3 | – | – | – | –
5 | Ab13 (antibody, V domains shown) VH: EVQLLESGGGLVQPGGSLRLSCAASGFTFADYAMTWVRQAPGKGLEWVSAISSFASAIYYADSVKGRFTISRDNSKNTLYLQMNSLRAEDTAVYYCARVSSGHWDFDYWGQGTLVTVSS VL: DIQMTQSPSSLSASVGDRVTITCRASQSISSYLNWYQQKPGKAPKLLIYAASSLQSGVPSRFSGSGSGTDFTLTISSLQPEDFATYYCQQVYDPPLTFGGGTKVEIK | 10 | 1.4 | – | – | – | –
6 | Ab36 (antibody, V domains shown) VH: EVQLLESGGGLVQPGGSLRLSCAASGFTFRNYAMSWVRQAPGKGLEWVSSISGSGGATYYADSVKGRFTISRDNSKNTLYLQMNSLRAEDTAVYYCARVSSGHWDLDYWGQGTLVTVSS VL: not shown | 12.8 | 1.42 | – | – | – | –
7 | Ab18 (antibody, V domains shown) VH: QVQLVESGGGVVQPGRSLRLSCAASGFTFSDYAMVWVRQAPGKGLEWVSAISGSGAATYFADSVKGRFTISRDNSKNTLYLQMNSLRAEDTAVYYCATVSSGHWDFDYWGQGTLVTVSS VL: DIQLTQSPSSLSASVGDRVTITCRASQSISSYLNWYQQKPGKAPKLLIYAASNLQSGVPSRFSGSGSGTDFTLTISSLQPEDFATYYCQQTYTVPLTFGGGTKVEIK | 11.5 | 1.02 | – | – | – | –
8 | Ab14 (antibody, V domains shown) VH: EVQLLESGGGLVQPGGSLRLSCAASGFTFSAYAMTWVRQAPGKGLEWVSAISGTGGSTYYADSVKGRFTISRDNSKNTLYLQMNSLRAEDTAVYYCARVSSGHWDFDYWGQGTLVTVSS VL: DIQMTQSPSSLSASVGDRVTITCRASQSISSYLNWYQQKPGKAPKLLIYAASSLQSGVPSRFSGSGSGTDFTLTISSLQPEDFATYYCQQVYDPPLTFGGGTKVEIK | 10.5 | 1.34 | – | – | – | –
9 | Ab27 (antibody, V domains shown) VH: EVQLVESGGGLVQPGGSLRLSCAASGFTFSFYAMNWVRQAPGKGLEWVSYISPDASTIYYADSVKGRFTISRDNAKNSLYLQMNSLRAEDTAVYYCARGVLDYGDMLDPWGQGTLVTVSS VL: DIQMTQSPSSLSASVGDRVTITCQASQDITNYLNWYQQKPGKAPKLLIYDASNLETGVPSRFSGSGSGTDFTFTISSLQPEDIATYYCQQADNHPPWTFGGGTKVEIK | 0.424 | 0.299 | – | – | – | –
10 | Ab23 (antibody, V domains shown) VH: EVQLVESGGGLVQPGGSLRLSCAASGFTFSSFSMNWVRQAPGKGLEWVSYISPSADTIYYADSVKGRFTISRDNAKNTLYLQMNSLRAEDTAVYYCARGVLDYGDMLDPWGQGTLVTVSS VL: DIQMTQSPSSLSASVGDRVTITCQASQDITNYLNWYQQKPGKAPKLLIYDASNLETGVPSRFSGSGSGTDFTFTISSLQPEDIATYYCQQADNHPPWTFGGGTKVEIK | 1.34 | 0.455 | 0.835 | 0.879 | 0.264 | 0.579
11 | Ab25 (antibody, V domains shown) VH: EVQLVESGGGLVQPGGSLRLSCAASGFTFGSFSMDWVRQAPGKGLEWVSYISPDASTIYYADSVKGRFTISRDNAKNSLYLQMNSLRAEDTAVYYCARGVLDYGDMLDPWGQGTLVTVSS VL: DIQMTQSPSSLSASVGDRVTITCQASQDITNYLNWYQQKPGKAPKLLIYDASNLETGVPSRFSGSGSGTDFTFTISSLQPEDIATYYCQQADNHPPWTFGGGTKVEIK | 0.488 | 0.409 | 6.08 | 0.538 | 0.442 | 0.653
12 | Ab28 (antibody, V domains shown) VH: EVQLVESGGGLVQPGGSLRLSCAASGFTFSSFSMDWVRQAPGKGLEWVSYISPDASTIYYADSVKGRFTISRDNAKNSLYLQMNSLRAEDTAVYYCVRGVLDYGDMLDPWGQGTLVTVSS VL: DIQMTQSPSSLSASVGDRVTITCQASQDITNYLNWYQQKPGKAPKLLIYDASNLETGVPSRFSGSGSGTDFTFTISSLQPEDIATYYCQQADNHPPWTFGGGTKVEIK | 0.797 | 0.409 | – | – | – | –

Now from value to binder:

Row | Kd [1] [nM] | Kd [2] [nM] | IC50, reporter cell assay [3] [nM] | IC50, reporter cell assay [4] [nM] | IC50, reporter cell assay [5] [nM] | IC50, reporter cell assay [6] [nM] | Binder
13 | 10.2 | 1.06 | – | – | – | – | Ab10 (antibody, V domains shown) VH: EVQLLESGGGLVQPGGSLRLSCAASGFTFRNYAMSWVRQAPGKGLEWVSSISGSGGATYYADSVKGRFTISRDNSKNTLYLQMNSLRAEDTAVYYCARVSSGHWDFDYWGQGTLVTVSS VL: not shown
14 | – | – | 14.5 | 2.71 | 3.71 | 5.37 | Ab1 (antibody, V domains shown) VH: EVQLLESGGGLVQPGGSLRLSCAASGFTFRNYAMSWVRQAPGKGLEWVSSISGSGGATYYADSVKGRFTISRDNSKNTLYLQMNSLRAEDTAVYYCARVSSGHWDFDYWGQGTLVTVSS VL: DIQLTQSPSSLSASVGDRVTITCQASQDISNFLNWYQQKPGKAPKLLIYDASNLETGVPSRFSGSGSGTDFTFTISSLQPEDIATYYCQQVFNPPLTFGGGTKVEIK
15 | 8.62 | 0.658 | – | – | – | – | Ab17 (antibody, V domains shown) VH: EVQLLESGGGVVQPGGSLRLSCAASGFTFSSFAMTWVRQAPGKGLEWVSAISGSGAATYFADSVKGRFTISRDNSKNTLYLQMNSLRAEDTAVYYCARVSSGHWDFDYWGQGTLVTVSS VL: DIQLTQSPSSLSASVGDRVTITCRASQSISSYLNWYQQKPGKAPKLLIYAASNLQSGVPSRFSGSGSGTDFTLTISSLQPEDFATYYCQQTYTVPLTFGGGTKVEIK
16 | 7.01 | 0.702 | – | – | – | – | Ab15 (antibody, V domains shown) VH: EVQLVESGGGVVQPGRSLRLSCAASGFTFSDYAMVWVRQAPGKGLEWVSAISGSGFTTYYADSVKGRFTISRDNSKNTLYLQMNSLRAEDTAVYYCARVSSGHWDFDYWGQGTLVTVSS VL: DIQLTQSPSSLSASVGDRVTITCRASQSISSYLNWYQQKPGKAPKLLIYAASNLQSGVPSRFSGSGSGTDFTLTISSLQPEDFATYYCQQTYTVPLTFGGGTKVEIK
17 | – | – | 1.29 | 1 | 0.14 | 0.616 | Ab5 (antibody, V domains shown) VH: EVQLVESGGGLVQPGGSLRLSCAASGFTFSSFSMDWVRQAPGKGLEWVSYISPDASTIYYADSVKGRFTISRDNAKNSLYLQMNSLRAEDTAVYYCARGVLDYGDMLDPWGQGTLVTVSS VL: DIQMTQSPSSLSASVGDRVTITCQASQDITNYLNWYQQKPGKAPKLLIYDASNLETGVPSRFSGSGSGTDFTFTISSLQPEDIATYYCQQADNHPPWTFGGGTKVEIK
18 | 0.833 | 0.455 | 1.61 | 0.765 | 0.401 | 0.596 | Ab21 (antibody, V domains shown) VH: EVQLVESGGGLVQPGGSLRLSCAASGFTFSSFSMDWVRQAPGKGLEWVSYISPDASTIYYADSVKGRFTISRDNAKNSLYLQMNSLRAEDTAVYYCARGVLDYGDMLDPWGQGTLVTVSS VL: DIQMTQSPSSLSASVGDRVTITCQASQDITNYLNWYQQKPGKAPKLLIYDASNLETGVPSRFSGSGSGTDFTFTISSLQPEDIATYYCQQADNHPPWTFGGGTKVEIK

Source: patent publication US20250215072A1 (published 2025)
